Data set [1] relates to mice. As to the kind of experiment: Weekly repeated RAID open field test over three weeks. It is filed as in vivo, mouse. From the text: FIG. 15 includes data related to protein delivery and behavioral testing protocol repeated weekly over a course of three weeks. FIG. 15a illustrates weekly RAID-induced behavioral modulation including a first counterclockwise rotations graph measured in the open field test before and after administration of L-DOPA. FIG. 15b illustrates weekly RAID-induced behavioral modulation including a second counterclockwise rotations graph measured in the open field test before and after administration of L-DOPA. FIG. 15c illustrates weekly RAID-induced behavioral modulation including a first clockwise rotations graph measured in the open field test before and after administration of L-DOPA. FIG. 15d illustrates weekly RAID-induced behavioral modulation including a second clockwise rotations graph measured in the open field test before and after administration of L-DOPA. Data is presented as mean±s.e.m. n=7 mice for FUS alone group and n=14, 13, and 11 mice for the FUS+mAADC-IKVAV (SEQ ID NO: 23) group in weeks 1, 2, and 3, respectively; *P<0.05, **P<0.01, ns (not significant), using Two-way ANOVA with Sidak's multiple comparison test.
Locomotor behavior test—Two groups of mice underwent FUS-BBBO targeting two sites at left striatum immediately after intravenous injection of recombinant protein AADC-IKVAV (SEQ ID NO: 23) (n=14 mice for FUS+AADC-IKVAV group, 20 mg/mL, 250 mg/kg) or equivalent volume of PBS buffer (n=11 mice for FUS alone group). Another group without FUS-BBBO procedure served as wild type control (n=12 mice for WT group). After 46 h, the first session of behavioral test was performed in a custom-made non-transparent open field box (30.5 cm×30.5 cm) as a baseline. Each mouse was individually placed into the apparatus center with a light intensity and background noise at ˜320 lux and 46 dB (400 Hz peak), respectively. After a habituation period of 5 min, the locomotor activity of a freely-moving mouse was recorded for 15 min by a video tracking system (Stoelting Co.) consisting of an overhead camera connected to a computer with Any-Maze software. […]

Data set [2] in a line: AADC immunostaining, AADC-IKVAV retention and spatial targeting after FUS-BBBO. As to conditions: for local AADC levels (AADC+ pixels) in FUS-targeted region vs FUS alone control group: 250 mg/kg i.v., one FUS site left CPu, 2 days. It is filed as in vivo, mouse. The procedure:
c-Fos […] injection of recombinant protein AADC-IKVAV (SEQ ID NO: 23) (20 mg/mL, 250 mg/kg) or equivalent volume of PBS buffer (n=5 mice for FUS alone+L-DOPA group). After 48 h, the mice were given a single dose of L-DOPA (0.1 mg/mL, 2 mg/kg, i.p.; Spectrum Chemical) 10 min after injection of carbidopa (1 mg/mL, 25 mg/kg, i.p.; Sigma-Aldrich), both of which were dissolved in sterile saline containing 2.5 and 0.125 mg/mL ascorbic acid. […] After 2 hours, the mice were euthanized by transcardial perfusion, and their brains were extracted and sliced into 50 μm coronal sections following 24-48 hours of fixation.
Immunostaining of AADC was performed as follows: (1) incubate the brain sections in 1× antigen retrieval solution (catalog number: 00-4955-58; Invitrogen) overnight in a 60° C. water bath; (2) block sections in 5% normal goat serum (SouthernBiotech) and 0.3% Triton-X solution in PBS for 1 h at room temperature; (3) incubate with primary rabbit anti-AADC antibody (1:500, 10166-1-AP, Proteintech) for staining AADC-IKVAV (SEQ ID NO: 23) in blocking buffer for 2 h at room temperature; (4) after washing three times in PBS (15 min each, the same as below), incubate with secondary goat anti-rabbit antibody conjugated to Alexa Fluor 647 (1:750, A-21245, ThermoFisher) in blocking buffer for 2 h at room temperature; (5) after washing three times, mount sections onto glass slides using the mounting media (Vector Laboratories) with DAPI and air-dry overnight in dark before imaging.
To analyze AADC-IKVAV (SEQ ID NO: 23) retention, as depicted in FIG. 7 and FIG. 11, stained coronal sections within the striatum were captured using a ×4 objective in DAPI (nuclei, not shown) and far-red (AADC) channels. Among these sections, the one displaying the most intense AADC fluorescence was chosen as the representative for each mouse. Subsequently, the selected sections were further examined at a higher magnification (×40 objective) for quantitative comparison. […] This area was imaged using a ×40 objective. Additionally, corresponding contralateral areas in the right striatum were also imaged.
To quantify the AADC-IKVAV (SEQ ID NO: 23) retention in the FUS targeted region, as shown in FIG. 7 and FIG. 11, the histological images were analyzed using ImageJ (version 1.53t). Specifically, the average pixel intensity of the AADC-IKVAV (SEQ ID NO: 23) channel image captured on the contralateral side of each representative section was calculated to establish the background for that section.
Immediately afterwards, the mice were sacrificed for immunohistochemical analysis of AADC-IKVAV (SEQ ID NO: 23) retention as already mentioned. The section displaying the strongest AADC fluorescence was selected as the representative for each mouse, and its adjacent section was stained separately to identify c-Fos positive cells. […]

Data set [3] can be described thus: Mouse body weight analysis. It is filed as in vivo. The following applies: day 0 vs 2 days after injection, RLuc8.6 100 mg/kg, AADC-IKVAV 250 mg/kg. The procedure: To assess the potential impact of the RAID approach on the body weight of the mice involved in behavior analysis (n=11 mice for the FUS alone+L-DOPA group and n=14 mice for the FUS+AADC-IKVAV (SEQ ID NO: 23)+L-DOPA group), their body weight was recorded on a daily basis before and after FUS-BBBO administration. […] The body weight of the additional group of mice was also recorded in a similar manner; however, unintentionally four mice were omitted from weighing on the day following the AADC-IKVAV (SEQ ID NO: 23) injection. Similarly, the mouse body weight was recorded before and after the intravenous injection of unmodified or engineered RLuc8.6, which is related to the study presented in FIG. 5.

[4] abbreviates: behavior study, FUS+AADC-IKVAV+L-DOPA, two FUS sites.

For `N[C@@H](Cc1ccc(O)c(O)c1)C(=O)O` [L-DOPA, reference compound], in data set [1] (week 1, FUS-alone group), the “reduction in clockwise rotations after L-DOPA” value was 53±18%. Besides, the “reduction in counter-clockwise (ipsilateral) rotations after L-DOPA” value in data set [1] (week 1, control mice receiving FUS alone) is “not observed”. In addition, in data set [1] (week two, FUS-alone control group), the “clockwise rotations after L-DOPA” value is “no significant effects”.

B1: AADC-IKVAV: aromatic-L-amino-acid decarboxylase (AADC) protein fused with short peptide IKVAV (SEQ ID NO: 23); CDS SEQ ID NO: 21 (protein)
chain: MRGSHHHHHHGMASMTGGQQMGRDLYDDDDKDPMNASEFRRRGKEMVDYMANYMEGIEGRQVYPDVEPGYLRPLIPAAAPQEPDTFEDIINDVEKIIMPGVTHWHSPYFFAYFPTASSYPAMLADMLCGAIGCIGFSWAASPACTELETVMMDWLGKMLELPKAFLNEKAGEGGGVIQGSASEATLVALLAARTKVIHRLQAASPELTQAAIMEKLVAYSSDQAHSSVERAGLIGGVKLKAIPSDGNFAMRASALQEALERDKAAGLIPFFMVATLGTTTCCSFDNLLEVGPICNKEDIWLHVDAAYAGSAFICPEFRHLLNGVEFADSFNFNPHKWLLVNFDCSAMWVKKRTDLTGAFRLDPTYLKHSHQDSGLITDYRHWQIPLGRRFRSLKMWFVFRMYGVKGLQAYIRKHVQLSHEFESLVRQDPRFEICVEVILGLVCFRLKGSNKVNEALLQRINSAKKIHLVPCHLRDKFVLRFAICSRTVESAHVQRAWEHIKELAADVLRAEREGGSGSSGGSGGSGGSGIKVAV
modifications: misc_feature 1..1602 Synthetic: AADC-IKVAV
For the molecule B1, the “local AADC levels (AADC+ pixels) in FUS-targeted region vs FUS alone control group” value in data set [2] (with subsequent L-DOPA 2 mg/kg i.p.) is listed as 38.5 (±6.1) fold; in data set [2] (without L-DOPA), 41.8 (±8.9) fold. In addition, the “mice with detectable retention within the CPu” value in data set [2] (11 mice receiving AADC-IKVAV) is listed as 73%. Besides, the “levels of local AADC (AADC+ pixels, left CPu) vs FUS alone group” value in data set [2] (setting [4]) is reported as 13.3 (±2.8) fold. For the same molecule, the “levels of local AADC (AADC+ pixels, left CPu) vs untreated group” value in data set [2] (setting [4]) is recorded as 93.3(±19.5) fold. The “presence of delivered enzyme in the FUS-targeted area by immunostaining” value in data set [2] (behavior study, two FUS sites, 2 days after delivery) is on record as “present in the FUS-targeted area in all mice”. Besides, the “mice with efficient retention within 100 μm of the CPu” value in data set [2] (remaining mice of 11) amounted to 27%. The Weight loss in data set [3] (FUS-BBBO + protein i.v., RLuc8.6-IKVAV 104 mg/kg) is 10.3±0.5%; in data set [3] (protein i.v. alone without FUS), 13.8±0.8%.

These data come from patent publication US20250195629A1, “SITE-SPECIFIC BRAIN THERAPEUTICS” (William Marsh Rice University, priority 2023, published 2025).
